The values below come from the Immune Epitope Database (IEDB).

Experiment [1] deals with HLA-A*01:01. Briefly: IEDB peptide-MHC binding, purified MHC/direct/fluorescence; filed as Kd, often an IC50 or EC50 that approximates it; ≥ and ≤ were set here for values at or beyond the usual limits of such assays. The note with it: source organism: Escherichia coli O157:H7.
Experiment [2] addresses HLA-A*02:01. The experiment is described as above. The note with it: source organism: Escherichia coli O157:H7.
Experiment [3] deals with HLA-A*03:01. Described as above. To be noted: source organism: Escherichia coli O157:H7.
Experiment [4] addresses HLA-A*11:01. The experiment is described as above. To be noted: source organism: Escherichia coli O157:H7.
Experiment [5] has as its target HLA-A*31:01. Described as above. To be noted: source organism: Escherichia coli O157:H7.
Experiment [6] addresses HLA-A*68:02. Described as above. To be noted: source organism: Escherichia coli O157:H7.
The target of experiment [7] is HLA-B*07:02. The experiment is described as above. To be noted: source organism: Escherichia coli O157:H7.
The target in experiment [8] is HLA-B*15:01. The experiment is described as above.
For experiment [9], the target named is HLA-B*15:17. Described as above.
In experiment [10] the target is HLA-B*18:01. Described as above. The note with it: source organism: Escherichia coli O157:H7.
The target in experiment [11] is HLA-B*27:05. The experiment is described as above. To be noted: source organism: Escherichia coli O157:H7.
In experiment [12] the target is HLA-B*40:01. The experiment is described as above. The note with it: source organism: Escherichia coli O157:H7.
Experiment [13] concerns the target HLA-B*46:01. The experiment is described as above. To be noted: source organism: Escherichia coli O157:H7.
For experiment [14], the target named is HLA-B*48:01. Described as above. To be noted: source organism: Escherichia coli O157:H7.
Experiment [15] deals with HLA-B*57:01. The description is as above.
The target of experiment [16] is HLA-B*58:01. The experiment is described as above.
The target in experiment [17] is HLA-A*02:01. Briefly: IEDB peptide-MHC binding, purified MHC/competitive/fluorescence; ≥ and ≤ were set here for values at or beyond the usual limits of such assays.
Experiment [18] addresses HLA-A*03:01. Described as above.
Experiment [19] has as its target HLA-A*11:01. Described as above.
Experiment [20] concerns the target HLA-B*15:01. Described as above.
For experiment [21], the target named is HLA-C*15:02. Briefly: IEDB peptide-MHC binding, purified MHC/direct/fluorescence; filed as Kd, often an IC50 or EC50 that approximates it; ≥ and ≤ were set here for values at or beyond the usual limits of such assays.
Experiment [22] concerns the target HLA-A*02:01. Briefly: IEDB peptide-MHC binding, purified MHC/competitive/fluorescence; filed as Kd, often an IC50 or EC50 that approximates it; ≥ and ≤ were set here for values at or beyond the usual limits of such assays.
For experiment [23], the target named is HLA-A*02:03. The description is as above. To be noted: source organism: Vibrio vulnificus YJ016.
For experiment [24], the target named is HLA-A*02:12. The description is as above.
Experiment [25] has as its target HLA-A*02:16. Described as above.
Experiment [26] deals with HLA-A*02:19. The description is as above.
Experiment [27] addresses HLA-A*03:01. Described as above. To be noted: source organism: Vibrio vulnificus YJ016.
The target in experiment [28] is HLA-A*26:01. The experiment is described as above. To be noted: source organism: Vibrio vulnificus YJ016.
Experiment [29] addresses HLA-A*68:02. Described as above. The note with it: source organism: Vibrio vulnificus YJ016.
Experiment [30] concerns the target HLA-B*15:01. The experiment is described as above. The note with it: source organism: Vibrio vulnificus YJ016.
Experiment [31] addresses HLA-B*27:03. Described as above. To be noted: source organism: Vibrio vulnificus YJ016.
The target of experiment [32] is HLA-B*39:01. Described as above.
The target in experiment [33] is HLA-B*46:01. The experiment is described as above. To be noted: source organism: Vibrio vulnificus YJ016.
For experiment [34], the target named is HLA-B*57:01. Described as above. The note with it: source organism: Vibrio vulnificus YJ016.
Experiment [35] addresses HLA-A*02:11. The experiment is described as above. To be noted: source organism: Human immunodeficiency virus 1.
In experiment [36] the target is HLA-A*69:01. The experiment is described as above. To be noted: source organism: Human immunodeficiency virus 1.
In experiment [37] the target is HLA-A*02:02. Briefly: IEDB peptide-MHC binding, purified MHC/competitive/radioactivity; filed as Kd, often an IC50 or EC50 that approximates it; ≥ and ≤ were set here for values at or beyond the usual limits of such assays. To be noted: source organism: Human immunodeficiency virus type 1 (CLONE 12).
In experiment [38] the target is HLA-A*02:11. Briefly: IEDB peptide-MHC binding, purified MHC/direct/fluorescence; filed as Kd, often an IC50 or EC50 that approximates it; ≥ and ≤ were set here for values at or beyond the usual limits of such assays. To be noted: source organism: Mycobacterium tuberculosis str. Haarlem.
Experiment [39] addresses HLA-A*69:01. Described as above. To be noted: source organism: Mycobacterium tuberculosis.
Setting [40] is: source organism: Escherichia coli O157:H7.
[41] abbreviates: source organism: Zaire ebolavirus.
Setting [42] is: source organism: Vaccinia virus WR.
Where [43] appears, read: source organism: dengue virus type 3.
The mark [44] stands for this setting: source organism: Yersinia pestis.
Setting [45] is: source organism: Vibrio vulnificus YJ016.
Where [46] appears, read: source organism: Human immunodeficiency virus 1.
The mark [47] stands for this setting: source organism: Sudan ebolavirus.

Where only a bound is given, the exact number is not on record here.

Take WLSVIAFGK: the Kd in experiment [1] was not below 20 µM; in experiment [2] it was not below 20 µM; in experiment [3], 1.63 µM; in [4], 2.24 µM; in experiment [5] it was not below 20 µM; in [6], not below 20 µM. In addition, the Kd in [7], in experiment [8] (setting [40]), in experiment [9] (setting [40]), in experiment [10], in [11] and in [12] was not below 20 µM throughout. In addition, the Kd in [13], in [14], in experiment [15] (setting [40]) and in experiment [16] (setting [40]) was not below 20 µM each time.

As for ITAASLPKT, the IC50 in experiment [17] (setting [41]) came to 4.9 µM; in experiment [18] (setting [41]), 30.4 µM; in experiment [19] (setting [41]), 2.9 µM.

On to ILNTIQFMH, for which the IC50 in experiment [17] (setting [42]) was 5.12 µM; in [18] (setting [42]), 3.36 µM; in experiment [19] (setting [42]), 2.68 µM; in experiment [20] (setting [42]) it was not below 111 µM.

Consider KMIDGIGRF, for which the Kd in [8] (source organism: H1N1 swine influenza virus (A/swine/Korea/S10/2004(H1N1))) was 0.194 µM; in [21] (source organism: Influenza A virus (A/81/HO)) it was not below 20 µM.

In the case of KIFLHFSIL, the Kd in experiment [21] (source organism: Rickettsia sibirica 246) was found to be 0.919 µM.

Sequence TIYTSGKRS yielded an IC50 in experiment [18] (setting [41]) of 37.4 µM.

Take VVFSTSDGK: the IC50 is not below 387 µM in experiment [17] (setting [41]), 4.54 µM in [18] (setting [41]) and 1.03 µM in experiment [19] (setting [41]).

In the case of ICSAVPVHW, the Kd was 0.373 µM in experiment [9] (setting [43]) and 0.417 µM in [15] (setting [43]).

With QGYSHGDIK, the 50% inhibitory concentration (IC50) in experiment [18] (setting [42]) came to 12.1 µM; in experiment [19] (setting [42]), 1.79 µM.

Sequence GLYEFTILV showed a Kd in experiment [21] (source organism: Mycobacterium tuberculosis C) not below 20 µM.

As to MAMPEYWQF, the Kd in experiment [9] (setting [44]) is 0.0088 µM; in experiment [15] (setting [44]), 0.0237 µM; in [16] (setting [44]) it was 0.0017 µM; in experiment [21] (source organism: Yersinia pestis Nepal516), not below 20 µM.

As to IALPVAWLF, the Kd in [22] (setting [45]), in experiment [23], in experiment [24] (setting [45]), in experiment [25] (setting [45]), in [26] (setting [45]) and in [27] was not below 20 µM each time. For the same sequence, the Kd in experiment [28], in experiment [29], in experiment [30], in experiment [31], in [32] (setting [45]) and in experiment [33] was not below 20 µM each time. In addition, the Kd in experiment [34] was found to be 0.0624 µM.

For the sequence AIIRILQQL, the Kd in [22] (setting [46]) was found to be 0.0048 µM; in [35], 0.00021 µM; in [24] (setting [46]) it was 0.011 µM; in [25] (setting [46]), 0.00151 µM; in experiment [26] (setting [46]), 0.116 µM; in [36], 0.578 µM. Also, the Kd in experiment [32] (setting [46]) is not below 20 µM; in experiment [37], 0.374 µM.

For the sequence MQISTIGIR, the half-maximal inhibitory concentration (IC50) in experiment [17] (setting [47]) is not below 117 µM; in experiment [18] (setting [47]) it was not below 145 µM; in [19] (setting [47]), 2.56 µM; in experiment [20] (setting [47]), 26.5 µM.

With TVADVRHCL, in [21] (source organism: Vaccinia virus Copenhagen), the Kd is 0.495 µM.

With RMWEFLDRL, the values for the Kd in experiment [38] and in experiment [39] were not above 0.001 µM and 2.18 µM, respectively.
